{
  "source": "paper PMC2397435",
  "about": "(2008)",
  "parents": {"B1": {"name": "Gal4 DBD-HIV-1 p6 (wild type) [HIV-1 (pNL4-3)] / Gal4 AD-ALIX (868 amino acid-long) [not stated] (parent complex)", "chain 1": "LQSRPEPTAPPEESFRFGEETTTPSQKQEPIDKELYPLTSLRSLFGSDPSSQ", "chain 2": "MATFISVQLKKTSEVDLAKPLVKFIQQTYPSGGEEQAQYCRAAEELSKLRRAAVGRPLDKHEGALETLLRYYDQICSIEPKFPFSENQICLTFTWKDAFDKGSLFGGSVKLALASLGYEKSCVLFNCAALASQIAAEQNLDNDEGLKIAAKHYQFASGAFLHIKETVLSALSREPTVDISPDTVGTLSLIMLAQAQEVFFLKATRDKMKDAIIAKLANQAADYFGDAFKQCQYKDTLPKEVFPVLAAKHCIMQANAEYHQSILAKQQKKFGEEIARLQHAAELIKTVASRYDEYVNVKDFSDKINRALAAAKKDNDFIYHDRVPDLKDLDPIGKATLVKSTPVNVPISQKFTDLFEKMVPVSVQQSLAAYNQRKADLVNRSIAQMREATTLANGVLASLNLPAAIEDVSGDTVPQSILTKSRSVIEQGGIQTVDQLIKELPELLQRNREILDESLRLLDEEEATDNDLRAKFKERWQRTPSNELYKPLRAEGTNFRTVLDKAVQADGQVKECYQSHRDTIVLLCKPEPELNAAIPSANPAKTMQGSEVVNVLKSLLSNLDEVKKEREGLENDLKSVNFDMTSKFLTALAQDGVINEEALSVTELDRVYGGLTTKVQESLKKQEGLLKNIQVSHQEFSKMKQSNNEANLREEVLKNLATAYDNFVELVANLKEGTKFYNELTEILVRFQNKCSDIVFARKTERDELLKDLQQSIAREPSAPSIPTPAYQSSPAGGHAPTPPTPAPRTMPPTKPQPPARPPPPVLPANRAPSATAPSPVGAGTAAPAPSQTPGSAPPPQAQGPPYPTYPGYPGYCQMPMPMGYNPYAYGQYNMPYPPVYHQSPGQAPYPGPQQPSYPFPQPPQQSYYPQQ"}},
  "data": [
    {"variants_of": "B1", "assay": "yeast two-hybrid, liquid β-galactosidase assay; yeast AH109, 30°C, SD/-Leu/-Trp selection medium; triplicate; parent: 1; read off a plot", "values": [
      {"variant": "chain 1 K33A", "ratio to parent": "~1"},
      {"variant": "chain 1 T39A", "ratio to parent": "~1.1"},
      {"variant": "chain 1 P37A", "ratio to parent": "~0.3"},
      {"variant": "chain 1 L41A", "ratio to parent": "~0.15"},
      {"variant": "chain 1 F45A", "ratio to parent": "~1"},
      {"variant": "chain 1 S43A", "ratio to parent": "~0.8"},
      {"variant": "chain 1 D32A", "ratio to parent": "~0.86"},
      {"variant": "chain 1 E34A", "ratio to parent": "~0.35"},
      {"variant": "chain 1 L35A", "ratio to parent": "~0.2"},
      {"variant": "chain 1 G46A", "ratio to parent": "~0.95"},
      {"variant": "chain 1 R42A", "ratio to parent": "~0.25"},
      {"variant": "chain 1 I31A", "ratio to parent": "~0.95"},
      {"variant": "chain 1 S40A", "ratio to parent": "~1"},
      {"variant": "chain 1 L44A", "ratio to parent": "~0.6"}
    ]}
  ]
}
